Common to all, as to assay: cell-based or functional assay
In experiment [1] the target is human MC3R (human, UniProt P41968 1-323).
Experiment [2] deals with T1, human MC4R receptor (human, UniProt P32245 1-332).
Experiment [3] deals with T1, human MC4R receptor. This is another data set of the same source.

Positions of bridges follow the written chain, without caps; N, C: chain ends. Non-standard residues stand in square brackets, D forms with d. dPhe(4-Br) = N[C@H](Cc1ccc(Br)cc1)C(=O)O; 1Nal = N[C@@H](Cc1cccc2ccccc12)C(=O)O; d1Nal = N[C@H](Cc1cccc2ccccc12)C(=O)O; 2Pal = N[C@@H](Cc1ccccn1)C(=O)O; 3Pal = N[C@@H](Cc1cccnc1)C(=O)O; 4Pal = N[C@@H](Cc1ccncc1)C(=O)O; Cit = NC(=O)NCCC[C@H](N)C(=O)O; Nle = CCCC[C@H](N)C(=O)O; Orn = NCCC[C@H](N)C(=O)O; Aib = CC(C)(N)C(=O)O

Sequence of human MC3R (P41968 whole entry): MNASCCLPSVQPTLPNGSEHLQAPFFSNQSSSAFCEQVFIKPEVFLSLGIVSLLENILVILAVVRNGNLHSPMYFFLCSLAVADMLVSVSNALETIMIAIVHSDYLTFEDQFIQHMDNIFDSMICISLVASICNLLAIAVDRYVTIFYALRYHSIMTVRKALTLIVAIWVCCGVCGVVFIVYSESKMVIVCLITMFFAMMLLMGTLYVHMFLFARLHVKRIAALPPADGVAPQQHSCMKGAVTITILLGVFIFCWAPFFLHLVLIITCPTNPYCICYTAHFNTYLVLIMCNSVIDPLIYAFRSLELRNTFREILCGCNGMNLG
T1 sequence (P32245 whole entry): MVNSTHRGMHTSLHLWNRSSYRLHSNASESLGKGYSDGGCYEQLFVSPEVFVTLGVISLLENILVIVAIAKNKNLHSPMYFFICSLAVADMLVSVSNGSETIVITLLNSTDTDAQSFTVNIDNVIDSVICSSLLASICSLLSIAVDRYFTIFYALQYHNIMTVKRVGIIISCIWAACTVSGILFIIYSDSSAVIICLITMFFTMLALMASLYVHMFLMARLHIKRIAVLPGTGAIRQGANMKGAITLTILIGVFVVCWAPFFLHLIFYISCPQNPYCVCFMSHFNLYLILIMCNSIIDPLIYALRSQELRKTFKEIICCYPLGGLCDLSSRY

B1: CTX-1623 (peptide)
peptide: Ac-R[Nle]CR[dPhe(4-Br)]RFC-NH2
modifications: disulfide 3-8
SMILES: CCCC[C@H](NC(=O)[C@H](CCCNC(=N)N)NC(C)=O)C(=O)N[C@H]1CSSC[C@@H](C(N)=O)NC(=O)[C@H](Cc2ccccc2)NC(=O)[C@H](CCCNC(=N)N)NC(=O)[C@@H](Cc2ccc(Br)cc2)NC(=O)[C@H](CCCNC(=N)N)NC1=O
Regarding B1, in experiment [1], the “% max activation” value was found to be 62% and the “cAMP EC50” value stood at 3.9 nM. Further, in experiment [2], the “% max activation” value is 73% and the “cAMP EC50” value amounted to 1.7 nM. Besides, in experiment [3], the “MC4R selectivity vs MC1R” value is 1.08 and the “MC4R selectivity vs MC3R” value amounted to 2.29.

B2: CTX-1610 (peptide)
peptide: Ac-R[Nle]CH[1Nal]RWC-NH2
modifications: disulfide 3-8
SMILES: CCCC[C@H](NC(=O)[C@H](CCCNC(=N)N)NC(C)=O)C(=O)N[C@H]1CSSC[C@@H](C(N)=O)NC(=O)[C@H](Cc2c[nH]c3ccccc23)NC(=O)[C@H](CCCNC(=N)N)NC(=O)[C@H](Cc2cccc3ccccc23)NC(=O)[C@H](Cc2c[nH]cn2)NC1=O
Turning to B2, in experiment [1], the “% max activation” value stood at 67% and the “cAMP EC50” value turned out to be 163 nM. Further, in experiment [2], the “% max activation” value amounted to 90% and the “cAMP EC50” value worked out at 247 nM. Further, in experiment [3], the “MC4R selectivity vs MC1R” value came out at 0.03 and the “MC4R selectivity vs MC3R” value was 0.66.

B3: CTX-1617 (peptide)
peptide: Ac-R[Nle]C[Orn][dF]RWC-NH2
modifications: disulfide 3-8
SMILES: CCCC[C@H](NC(=O)[C@H](CCCNC(=N)N)NC(C)=O)C(=O)N[C@H]1CSSC[C@@H](C(N)=O)NC(=O)[C@H](Cc2c[nH]c3ccccc23)NC(=O)[C@H](CCCNC(=N)N)NC(=O)[C@@H](Cc2ccccc2)NC(=O)[C@H](CCCN)NC1=O
Take B3: in experiment [1], the “% max activation” value worked out at 102% and the “cAMP EC50” value is 2.3 nM. Besides, in experiment [2], the “% max activation” value was determined as 102% and the “cAMP EC50” value was 0.21 nM. Besides, in experiment [3], the “MC4R selectivity vs MC1R” value amounted to 1.75 and the “MC4R selectivity vs MC3R” value stood at 11.

B4: CTX-1622 (peptide)
peptide: Ac-R[Nle]CR[dF]RFC-NH2
modifications: disulfide 3-8
SMILES: CCCC[C@H](NC(=O)[C@H](CCCNC(=N)N)NC(C)=O)C(=O)N[C@H]1CSSC[C@@H](C(N)=O)NC(=O)[C@H](Cc2ccccc2)NC(=O)[C@H](CCCNC(=N)N)NC(=O)[C@@H](Cc2ccccc2)NC(=O)[C@H](CCCNC(=N)N)NC1=O
On to B4, for which, in experiment [1], the “% max activation” value amounted to 100% and the “cAMP EC50” value is 13 nM. In experiment [2], the “% max activation” value was determined as 101% and the “cAMP EC50” value worked out at 41 nM. In experiment [3], the “MC4R selectivity vs MC1R” value was 0.39 and the “MC4R selectivity vs MC3R” value is 0.32.

B5: CTX-1609 (peptide)
peptide: Ac-R[Nle]C[Cit]FRWC-NH2
modifications: disulfide 3-8
SMILES: CCCC[C@H](NC(=O)[C@H](CCCNC(=N)N)NC(C)=O)C(=O)N[C@H]1CSSC[C@@H](C(N)=O)NC(=O)[C@H](Cc2c[nH]c3ccccc23)NC(=O)[C@H](CCCNC(=N)N)NC(=O)[C@H](Cc2ccccc2)NC(=O)[C@H](CCCNC(N)=O)NC1=O
On to B5, for which, in experiment [1], the “% max activation” value worked out at 65% and the “cAMP EC50” value was 407 nM. In experiment [2], the “% max activation” value is 96% and the “cAMP EC50” value was determined as 86 nM. Besides, in experiment [3], the “MC4R selectivity vs MC1R” value was found to be 4.15 and the “MC4R selectivity vs MC3R” value turned out to be 4.72.

B6: CTX-1608 (peptide)
peptide: Ac-R[Nle]C[Cit][dF]R[dW]C-NH2
modifications: disulfide 3-8
SMILES: CCCC[C@H](NC(=O)[C@H](CCCNC(=N)N)NC(C)=O)C(=O)N[C@H]1CSSC[C@@H](C(N)=O)NC(=O)[C@@H](Cc2c[nH]c3ccccc23)NC(=O)[C@H](CCCNC(=N)N)NC(=O)[C@@H](Cc2ccccc2)NC(=O)[C@H](CCCNC(N)=O)NC1=O
Turning to B6, in experiment [1], the “% max activation” value turned out to be 19% and the “cAMP EC50” value was found to be 274 nM. Further, in experiment [2], the “% max activation” value was determined as 79% and the “cAMP EC50” value worked out at 288 nM. Also, in experiment [3], the “MC4R selectivity vs MC1R” value stood at 2.07 and the “MC4R selectivity vs MC3R” value was 0.95.
Take Ac-R[Nle]CR[dF]R[dW]C-NH2 (disulfide 3-8) [CTX-1616]: in experiment [1], the “% max activation” value came out at 78% and the “cAMP EC50” value worked out at 61 nM. Besides, in experiment [2], the “% max activation” value is 93% and the “cAMP EC50” value is 16 nM. Besides, in experiment [3], the “MC4R selectivity vs MC1R” value came to 1.51 and the “MC4R selectivity vs MC3R” value was 3.78.

B7: CTX-1621 (peptide)
peptide: Ac-R[Nle]C[4Pal][dF]RWC-NH2
modifications: disulfide 3-8
SMILES: CCCC[C@H](NC(=O)[C@H](CCCNC(=N)N)NC(C)=O)C(=O)N[C@H]1CSSC[C@@H](C(N)=O)NC(=O)[C@H](Cc2c[nH]c3ccccc23)NC(=O)[C@H](CCCNC(=N)N)NC(=O)[C@@H](Cc2ccccc2)NC(=O)[C@H](Cc2ccncc2)NC1=O
As for B7, in experiment [1], the “% max activation” value came out at 15% and the “cAMP EC50” value is 36 nM. In experiment [2], the “% max activation” value came to 92% and the “cAMP EC50” value was 2.9 nM. Further, in experiment [3], the “MC4R selectivity vs MC1R” value amounted to 82 and the “MC4R selectivity vs MC3R” value turned out to be 13.

B8: CTX-1604 (peptide)
peptide: Ac-RC[Aib][2Pal][dF]RFC-NH2
modifications: disulfide 2-8
SMILES: CC(=O)N[C@@H](CCCNC(=N)N)C(=O)N[C@H]1CSSC[C@@H](C(N)=O)NC(=O)[C@H](Cc2ccccc2)NC(=O)[C@H](CCCNC(=N)N)NC(=O)[C@@H](Cc2ccccc2)NC(=O)[C@H](Cc2ccccn2)NC(=O)C(C)(C)NC1=O
In the case of B8, in experiment [1], the “% max activation” value is 12% and the “cAMP EC50” value was determined as 167 nM. For the same molecule, in experiment [2], the “% max activation” value turned out to be 96% and the “cAMP EC50” value came to 1520 nM. Besides, in experiment [3], the “MC4R selectivity vs MC1R” value came out at 3.66 and the “MC4R selectivity vs MC3R” value was 0.11.

B9: CTX-1619 (peptide)
peptide: Ac-R[Nle]C[2Pal][dF]RWC-NH2
modifications: disulfide 3-8
SMILES: CCCC[C@H](NC(=O)[C@H](CCCNC(=N)N)NC(C)=O)C(=O)N[C@H]1CSSC[C@@H](C(N)=O)NC(=O)[C@H](Cc2c[nH]c3ccccc23)NC(=O)[C@H](CCCNC(=N)N)NC(=O)[C@@H](Cc2ccccc2)NC(=O)[C@H](Cc2ccccn2)NC1=O
Regarding B9, in experiment [1], the “% max activation” value was determined as 84% and the “cAMP EC50” value was determined as 33 nM. Further, in experiment [2], the “% max activation” value is 99% and the “cAMP EC50” value turned out to be 2.6 nM. For the same molecule, in experiment [3], the “MC4R selectivity vs MC1R” value was 86 and the “MC4R selectivity vs MC3R” value is 13.

B10: CTX-1611 (peptide)
peptide: Ac-R[Nle]CR[d1Nal]RWC-NH2
modifications: disulfide 3-8
SMILES: CCCC[C@H](NC(=O)[C@H](CCCNC(=N)N)NC(C)=O)C(=O)N[C@H]1CSSC[C@@H](C(N)=O)NC(=O)[C@H](Cc2c[nH]c3ccccc23)NC(=O)[C@H](CCCNC(=N)N)NC(=O)[C@@H](Cc2cccc3ccccc23)NC(=O)[C@H](CCCNC(=N)N)NC1=O
For B10, in experiment [1], the “% max activation” value is 58% and the “cAMP EC50” value was 11 nM. Further, in experiment [2], the “% max activation” value is 67% and the “cAMP EC50” value worked out at 1.6 nM. For the same molecule, in experiment [3], the “MC4R selectivity vs MC1R” value worked out at 0.25 and the “MC4R selectivity vs MC3R” value was determined as 6.61.

B11: CTX-1606 (peptide)
peptide: Ac-RC[Aib][4Pal][dF]RFC-NH2
modifications: disulfide 2-8
SMILES: CC(=O)N[C@@H](CCCNC(=N)N)C(=O)N[C@H]1CSSC[C@@H](C(N)=O)NC(=O)[C@H](Cc2ccccc2)NC(=O)[C@H](CCCNC(=N)N)NC(=O)[C@@H](Cc2ccccc2)NC(=O)[C@H](Cc2ccncc2)NC(=O)C(C)(C)NC1=O
As for B11, in experiment [1], the “% max activation” value came to 7.69% and the “cAMP EC50” value is 82 nM. Also, in experiment [2], the “% max activation” value came out at 92% and the “cAMP EC50” value is 133 nM. Further, in experiment [3], the “MC4R selectivity vs MC1R” value was determined as 2.99 and the “MC4R selectivity vs MC3R” value amounted to 0.62.

B12: CTX-1620 (peptide)
peptide: Ac-R[Nle]C[3Pal][dF]RWC-NH2
modifications: disulfide 3-8
SMILES: CCCC[C@H](NC(=O)[C@H](CCCNC(=N)N)NC(C)=O)C(=O)N[C@H]1CSSC[C@@H](C(N)=O)NC(=O)[C@H](Cc2c[nH]c3ccccc23)NC(=O)[C@H](CCCNC(=N)N)NC(=O)[C@@H](Cc2ccccc2)NC(=O)[C@H](Cc2cccnc2)NC1=O
Turning to B12, in experiment [1], the “% max activation” value was 39% and the “cAMP EC50” value stood at 58 nM. Besides, in experiment [2], the “% max activation” value was found to be 91% and the “cAMP EC50” value is 4.7 nM. For the same molecule, in experiment [3], the “MC4R selectivity vs MC1R” value is 47 and the “MC4R selectivity vs MC3R” value worked out at 12.

B13: CTX-1602 (peptide)
peptide: Ac-RC[Aib][Orn][dF]RFC-NH2
modifications: disulfide 2-8
SMILES: CC(=O)N[C@@H](CCCNC(=N)N)C(=O)N[C@H]1CSSC[C@@H](C(N)=O)NC(=O)[C@H](Cc2ccccc2)NC(=O)[C@H](CCCNC(=N)N)NC(=O)[C@@H](Cc2ccccc2)NC(=O)[C@H](CCCN)NC(=O)C(C)(C)NC1=O
With B13, in experiment [1], the “% max activation” value came to 80% and the “cAMP EC50” value was 251 nM. Besides, in experiment [2], the “% max activation” value stood at 97% and the “cAMP EC50” value was 73 nM. In experiment [3], the “MC4R selectivity vs MC1R” value turned out to be 3.65 and the “MC4R selectivity vs MC3R” value was 3.44.

B14: CTX-1605 (peptide)
peptide: Ac-RC[Aib][3Pal][dF]RFC-NH2
modifications: disulfide 2-8
SMILES: CC(=O)N[C@@H](CCCNC(=N)N)C(=O)N[C@H]1CSSC[C@@H](C(N)=O)NC(=O)[C@H](Cc2ccccc2)NC(=O)[C@H](CCCNC(=N)N)NC(=O)[C@@H](Cc2ccccc2)NC(=O)[C@H](Cc2cccnc2)NC(=O)C(C)(C)NC1=O
Take B14: the “cAMP EC50” value in experiment [1] is more than 10000 nM. Moreover, in experiment [2], the “% max activation” value is 85% and the “cAMP EC50” value turned out to be 33 nM. In experiment [3], the “MC4R selectivity vs MC1R” value was determined as 0.14 and the “MC4R selectivity vs MC3R” value is more than 300.

These data come from patent publication US20240391954A1, “MC4R AGONIST PEPTIDES” (The Regents of the University of Michigan, priority 2021, published 2024).
